Drawing on US20170233451A1, this text covers % of cells in the quadrant Anti-hPD-L1 488 positive, HAC 594 negative (lower right) for 1 substance.

In the experiment the target is human PD-L1 on cells (IFN-gamma-induced SK-MEL-28 melanoma cells; CT26-Tg(hPD-L1)-delta(mPD-L1) cells and tumors) (human) (UniProt Q9NZQ7). Nature of the experiment: flow cytometry of a dissociated CT26 hPD-L1 positive tumor four hours after intraperitoneal injection of both labeled agents; same quadrant of the PD-L1 negative tumor: 3.97. A general note: In flow cytometry, cells or beads pass a laser one at a time.
Sequence of human PD-L1 on cells (IFN-gamma-induced SK-MEL-28 melanoma cells; CT26-Tg(hPD-L1)-delta(mPD-L1) cells and tumors) (human) (Q9NZQ7 19-290 limits assumed, stated change not applied): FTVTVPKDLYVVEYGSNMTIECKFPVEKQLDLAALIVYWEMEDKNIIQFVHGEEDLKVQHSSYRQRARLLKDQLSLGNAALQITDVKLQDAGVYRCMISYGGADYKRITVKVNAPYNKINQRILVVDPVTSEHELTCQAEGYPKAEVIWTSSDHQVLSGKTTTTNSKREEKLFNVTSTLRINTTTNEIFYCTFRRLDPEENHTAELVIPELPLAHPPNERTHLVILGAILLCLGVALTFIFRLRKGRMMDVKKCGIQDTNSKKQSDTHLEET

“AlexaFluor488-labeled anti-PD-L1 antibody (clone 29E.2A3, BioLegend)” registered a % of cells in the quadrant Anti-hPD-L1 488 positive, HAC 594 negative (lower right) of 2.22%.
